The record followed here is US20240400717A1, “Antibody Binding to CHI3L1 for Treating Cancer” (National Cheng Kung University, priority 2021, published 2024).

The subject of one data set is PANC1 and H460 cells. The data set can be described thus: CCK-8 cell viability assay with rCHI3L1. It is filed as cell-based, human. Particulars: PANC1 and H460, rCHI3L1 with mAbs at two doses. The method, then: PI3K/AKT/mTOR signaling pathway is important in regulating cell proliferation, survival and migration (Xu et al. 2020). Therefore, we investigated the effect of four selected mAbs on cancer cell behaviors. Human pancreatic (PANC1) and large cell cancer of the lung (H460) cells were treated with rCHI3L1 only or together with mAbs at two doses, and then subjected to cell counting kit 8 (CCK-8) cell viability assay. […] P values were determined by one-way ANOVA. * P<0.05, ** P<0.01, *** P<0.001, **** P<0.0001.
A general note: Tetrazolium dyes change colour on reduction, which living cells bring about.

A further data set deals with T1, hCHI3L1/flag-His (Homo sapiens, UniProt P36222).
T1 construct: human CHI3L1 extracellular domain fused with flag and His tag
T1 sequence (P36222 22-383): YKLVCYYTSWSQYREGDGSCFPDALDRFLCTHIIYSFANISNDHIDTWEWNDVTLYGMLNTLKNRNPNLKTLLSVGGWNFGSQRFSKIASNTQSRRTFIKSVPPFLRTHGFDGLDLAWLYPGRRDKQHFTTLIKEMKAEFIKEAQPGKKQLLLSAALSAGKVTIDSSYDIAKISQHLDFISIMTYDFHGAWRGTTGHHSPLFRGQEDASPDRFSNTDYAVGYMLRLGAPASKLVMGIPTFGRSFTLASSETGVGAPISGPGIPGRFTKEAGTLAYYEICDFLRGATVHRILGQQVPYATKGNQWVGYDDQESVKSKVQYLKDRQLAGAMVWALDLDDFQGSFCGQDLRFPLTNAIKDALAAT
The data set can be described thus: In tandem epitope binning on Octet Red96. It is filed as binding. Particulars: for epitope cluster: among four anti-CHI3L1 mAbs; for competitive binding class, CHI3L1 293R3-2: paired with CHI3L1 293R3-2; for Epitope Binning Heat Map value, CHI3L1 293R3-2: paired with CHI3L1 293R3-2, 100 nM each; for competitive binding class, CHI3L1 293R3-4: paired with CHI3L1 293R3-4; for competitive binding class, CHI3L1 R4-4: paired with CHI3L1 R4-4; for Epitope Binning Heat Map value, CHI3L1 R4-4: paired with CHI3L1 R4-4, 100 nM each; for competitive binding class, CHI3L1 R4-54: paired with CHI3L1 R4-54; for Epitope Binning Heat Map value, CHI3L1 R4-54: paired with CHI3L1 R4-54, 100 nM each. The method, then:
In order to know the epitopic coverage for those four antibodies to increase the success of therapeutic CHI3L1 antibody development, epitope binning is used to characterize the binding site of mAbs to the corresponding antigen and summarized in the Table 4. In epitope binning, mAbs specific to the same target protein are tested pairwise against all mAbs in a set to assess whether they block one another's binding to a specific site of the antigen or not. The mAbs that block binding to the same epitope are “binned” together. mAbs within the same bin often function similarly, so epitope bins can narrow down the choices to fewer candidates for investigators to choose from. The in tandem epitope binning assay conducted on Octet Red96 comprised a five-step binding cycle; 1) a buffer baseline was established for 30 sec, 2) 100 nM hCHI3L1/flag-His was captured for 5 min, 3) 100 nM mAb array was loaded to saturate the captured antigen for 10 min, 4) 100 nM of the test mAb was bound for 5 min, and 5) the capture surfaces were regenerated for 30 sec. Anti-His surfaces were regenerated with 10 mM glycine pH 1.7. Raw data was processed using ForteBio's Data Analysis HT Software 11.1 and the antibody pairs were assessed for competitive binding. Additional binding by the second antibody indicates an unoccupied epitope (non-competitor, marked as *c in Table 4), while no binding indicates epitope blocking (competitor, marked as *b in Table 4) and self-competing antibodies were marked as *a in Table 4. Among four anti-CHI3L1 mAbs, there are two epitope clusters.
A general note: In BLI a coated tip is dipped into the sample, and binding shifts an interference pattern.

The target in data set [1] is recombinant CHI3L1 protein (Homo sapiens, UniProt P36222). The data set can be described thus: ELISA binding specificity, CHI3L1. Particulars: mAbs 1 μg/ml; coated protein 2.5 μg/ml to 0 μg/ml. The method, then: (§1) Four selected clones of mAbs including R4-4, R4-54, 293R3-2, and 293R3-4 were further tested for blocking effect on human colorectal (HCT116, SW480, and SW620) and pancreatic cancer cell lines (PANC1 and MiaPaCa-2). […] P values were determined by one-way ANOVA. * P<0.05, ** P<0.01, *** P<0.001, **** P<0.0001. For binding specificity examination, we further coated different concentration of recombinant CHI3L1 protein, and two other major proteins in chitinase family including human chitotriosidase-1 (CHIT1) and CHI3L2 from 2.5 μg/ml to 0 μg/ml, on 96-well plate.
Chain of recombinant CHI3L1 protein (P36222 22-383): as above
In general terms: In an ELISA, binding on a coated surface is turned into a signal by an enzyme label.

Data set [2] has as its system MiaPaCa-2, SW480 and A549 cells. The data set can be described thus: Wound healing assay with rCHI3L1. It is filed as cell-based, human. Particulars: MiaPaCa-2, SW480, A549; 16 hours. The method, then: Since AKT regulates cell migration, we further performed wound healing assay to examine the anti-migratory effect of mAbs on pancreatic (MiaPaCa-2), colorectal (SW480), and lung (A549) cells. We observed that after 16 hours, the wound closure area was increased compared to that in control groups upon rCHI3L1 treatment. […] Taken together, our fully human monoclonal CHI3L1 neutralizing antibody clones R4-4, R4-54, 293R3-2, and 293R3-4 blocked the CHI3L1 induced signaling and cell behaviors of tumor cells. The data was presented as mean±S.D. (n=3 per group). P values were determined by one-way ANOVA. * P<0.05, ** P<0.01, *** P<0.001, **** P<0.0001.

The test system of the next data set is MiaPaCa-2 cells. In words: MiaPaCa-2 subcutaneous xenograft NOD-SCID mice, efficacy and toxicity. It is filed as in vivo. Particulars: for histology of liver, lung and kidney / mice body weight / serum level of GOT, GPT, BUN, albumin and creatinine: 5 mg/kg i.v.; for growth of MiaPaCa-2 subcutaneous xenografts: 5 mg/kg i.v. day 7, 14, 21, sacrificed day 28; for mice body weight / serum level of GOT, GPT, BUN, albumin and creatinine: vs IgG control. The method, then: Next, we examined whether our mAb clones R4-4 and R4-54 exert any toxicity in vivo. We performed a xenograft model by subcutaneously implanting MiaPaCa-2 cells to NOD-SCID mice. The mice were i.v. injected with IgG isotype, mAb clone R4-4, or clone R4-54 (5 mg/kg) once a week starting from day 7 to day 21, that is, day 7, day 14, and day 21, and mice were sacrificed on day 28. […] To evaluate the potential safety of our developed mAbs, we examined body weight, serum biochemical markers and histology sections of three major organs of tumor-bearing mice. […] Scale bar 100 μm. P values were determined by one-way ANOVA. * P<0.05, ** P<0.01, *** P<0.001, **** P<0.0001.

Another data set addresses T2, CHI3L2 (Homo sapiens, UniProt Q15782).
T2 sequence (Q15782 27-390): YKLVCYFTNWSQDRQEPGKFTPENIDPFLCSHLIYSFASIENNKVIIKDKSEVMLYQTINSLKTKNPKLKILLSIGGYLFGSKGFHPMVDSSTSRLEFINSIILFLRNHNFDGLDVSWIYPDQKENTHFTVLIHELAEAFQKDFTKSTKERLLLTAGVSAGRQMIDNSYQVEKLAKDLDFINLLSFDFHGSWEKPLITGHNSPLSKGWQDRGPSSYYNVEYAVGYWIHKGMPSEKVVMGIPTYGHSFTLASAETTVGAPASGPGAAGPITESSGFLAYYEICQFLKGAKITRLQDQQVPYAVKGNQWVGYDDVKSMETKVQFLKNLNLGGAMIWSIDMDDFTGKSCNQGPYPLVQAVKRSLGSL
The data set can be described thus: ELISA binding specificity, CHI3L2. The settings on record: mAbs 1 μg/ml; coated protein 2.5 μg/ml to 0 μg/ml. The method, then: as §1

For data set [3], the target named is human chitotriosidase-1 (CHIT1) (Homo sapiens, UniProt Q13231). In words: ELISA binding specificity, CHIT1. The settings on record: mAbs 1 μg/ml; coated protein 2.5 μg/ml to 0 μg/ml. The method, then: as §1
Chain of human chitotriosidase-1 (CHIT1) (Q13231 22-466): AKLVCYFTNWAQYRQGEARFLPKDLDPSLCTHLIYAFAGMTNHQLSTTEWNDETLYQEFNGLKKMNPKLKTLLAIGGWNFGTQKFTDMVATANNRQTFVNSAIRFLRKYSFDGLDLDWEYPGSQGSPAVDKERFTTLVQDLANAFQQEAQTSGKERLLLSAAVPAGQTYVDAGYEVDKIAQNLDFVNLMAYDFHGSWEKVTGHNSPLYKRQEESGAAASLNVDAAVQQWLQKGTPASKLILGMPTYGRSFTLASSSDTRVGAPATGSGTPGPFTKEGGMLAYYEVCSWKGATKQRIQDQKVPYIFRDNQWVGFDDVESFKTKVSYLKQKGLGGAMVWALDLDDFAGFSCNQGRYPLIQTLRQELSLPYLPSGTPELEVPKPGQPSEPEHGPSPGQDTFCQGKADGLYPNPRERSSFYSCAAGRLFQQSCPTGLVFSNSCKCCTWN
A further data set deals with MiaPaCa cells. In words: MiaPaCa orthotopic NOD-SCID mice model. The settings on record: for fibrosis indicated by α-SMA: comparing to IgG control and gemcitabine groups; for level of CHI3L1 in intratumoral region and plasma: end of experiment; for infiltrated macrophages in tumor sections (F4/80+, CD206+): immunofluorescence; for angiogenesis indicated by CD31 expression / tumor size: mAb 5 mg/kg i.v., gemcitabine 50 mg/kg i.p.; for tumor size: Day 7, 14, 21, 28, sacrificed day 34.

Procedure for MiaPaCa cells: Specifically, experimental design of tumor growth inhibition in vivo. MiaPaCa cells (5×10^6) were injected into pancreas of NOD-SCID mice at Day 0. […] Mice were sacrificed on day 34. […] Since fibrosis and angiogenesis are two major issues during tumor progression, we compared the fibrosis and angiogenesis level within each groups.

B1: R4-54: fully human anti-CHI3L1 IgG1 mAb, Table 1 No. 34; heavy chain SEQ ID NO: 33, light chain SEQ ID NO: 34 (antibody, listed as Homo sapiens)
VH: QVQLVESGGGVVQPGRSLRLSCAASGFTFSSYGMHWVRQAPGKGLEWVAVISYDGSDKDYADSVKGRFTISRDNSKNTLFLQMNSLRAEDTAVYYCARDDYDSTYYFDNWGQGTTVTVSS
light: SYELTQPPSVSVSPGQTASITCSGDILADQYASWYQQKPGQSPVLVIYHDTKRPSGVPERFSGSTSGNTATLTISGTQAMDEAAYYCQAWDINTAWVFGGGTQLTVLGQPKAAPSVTLFPPSSEELQANKATLVCLISDFYPGAVTVAWKADSSPVKAGVETTTPSKQSNNKYAASSYLSLTPEQWKSHRSYSCQVTHEGSTVEKTVAPTECS
Turning to B1, the “cell viability (CCK-8)” value in the data set with PANC1 and H460 cells was “reduced the viability”. For the same molecule, in the data set with hCHI3L1/flag-His, the epitope cluster result is given as “unidirectional blocking results”; the “competitive binding class, CHI3L1 293R3-2” value is “*^b”; the “Epitope Binning Heat Map value, CHI3L1 293R3-2” value was determined as 0.1002; the “competitive binding class, CHI3L1 293R3-4” value was “*^b”. In addition, in the data set with hCHI3L1/flag-His, the “competitive binding class, CHI3L1 R4-4” value was “*^c”; the “Epitope Binning Heat Map value, CHI3L1 R4-4” value is recorded as 1.1166; the “competitive binding class, CHI3L1 R4-54” value is listed as “*^a”; the “Epitope Binning Heat Map value, CHI3L1 R4-54” value was 0.2160. Further, in the data set with hCHI3L1/flag-His (paired with CHI3L1 293R3-4, 100 nM each), the “Epitope Binning Heat Map value, CHI3L1 293R3-4” value is 0.1425. Moreover, the “binding specificity: recognition of CHI3L1” value in data set [1] is reported as “specifically recognized CHI3L1”. Besides, the “cell migration ability induced by rCHI3L1 (wound closure area)” value in data set [2] is listed as “significantly reduced cell migration ability”. In addition, in the data set with MiaPaCa-2 cells, the “histology of liver, lung and kidney” value is on record as “no significant adverse effects”; the “growth of MiaPaCa-2 subcutaneous xenografts” value is reported as “significantly delayed the growth”; the mice body weight entry is recorded as “no significant change in mice body weight”; the “serum level of GOT, GPT, BUN, albumin and creatinine” value is reported as “No obvious difference”. Besides, the “binding specificity: recognition of CHI3L2” value with CHI3L2 is listed as “no other chitinase proteins”. In addition, in data set [3], the “binding specificity: recognition of CHIT1” value is reported as “no other chitinase proteins”. In addition, in the data set with MiaPaCa cells, the “fibrosis indicated by α-SMA” value was “obviously decrease”; the “level of CHI3L1 in intratumoral region and plasma” value was “lower than IgG control group”; the “angiogenesis indicated by CD31 expression” value is reported as “decreased in every treatment groups”; the tumor size result is listed as “smaller than IgG control group”. Also, the “infiltrated macrophages in tumor sections (F4/80+, CD206+)” value in the data set on MiaPaCa cells (5 mg/kg i.v.) is on record as “more macrophages other than M2 phenotype”.

B2: R4-4: fully human anti-CHI3L1 IgG1 mAb, Table 1 No. 9; heavy chain SEQ ID NO: 9, light chain SEQ ID NO: 10 (antibody, listed as Homo sapiens)
VH: EVQLLESGGGLLQPGGSLRLSCAASGLTFRNYAMTWVRQAPGKGLEWVSTISGNGDETFYADSVKGHFTISRDNSKDTVYLQMNSLRAEDTAVYYCAKGGHYSFFDSWGQGSPVTVSS
light: NFMLTQPHSVSESPGKTVTISCTRSSGSIASNYVQWYQQRPGSSPTTVIYEDNQRPSGVPDRFSGSIDSSSNSASLTISGLKTEDEADYYCQSYDSSNYVFGTGTKVTVLGQPKANPTVTLFPPSSEELQANKATLVCLISDFYPGAVTVAWKADGSPVKAGVETTKPSKQSNNKYAASSYLSLTPEQWKSHRSYSCQVTHEGSTVEKTVAPAECS
As for B2, the “cell viability (CCK-8)” value in the data set on PANC1 and H460 cells is reported as “reduced the viability”. In addition, in the data set with hCHI3L1/flag-His, the epitope cluster entry was “exclusive epitope”; the “competitive binding class, CHI3L1 293R3-2” value is “*^c”; the “Epitope Binning Heat Map value, CHI3L1 293R3-2” value came out at 0.5680; the “competitive binding class, CHI3L1 293R3-4” value is recorded as “*^c”. For the same molecule, in the data set with hCHI3L1/flag-His, the “competitive binding class, CHI3L1 R4-4” value is “*^a”; the “Epitope Binning Heat Map value, CHI3L1 R4-4” value is given as 0.1232; the “competitive binding class, CHI3L1 R4-54” value is listed as “*^c”; the “Epitope Binning Heat Map value, CHI3L1 R4-54” value is 1.3845. The “binding specificity: recognition of CHI3L1” value in data set [1] was “specifically recognized CHI3L1”. Besides, the “cell migration ability induced by rCHI3L1 (wound closure area)” value in data set [2] is “significantly reduced cell migration ability”. In addition, in the data set on MiaPaCa-2 cells, the “histology of liver, lung and kidney” value was “no significant adverse effects”; the “growth of MiaPaCa-2 subcutaneous xenografts” value is on record as “significantly delayed the growth”; the mice body weight result is “no significant change in mice body weight”; the “serum level of GOT, GPT, BUN, albumin and creatinine” value was “No obvious difference”. The “binding specificity: recognition of CHI3L2” value with CHI3L2 was “no other chitinase proteins”. Moreover, the “binding specificity: recognition of CHIT1” value in data set [3] is listed as “no other chitinase proteins”. For the same molecule, in the data set on MiaPaCa cells (5 mg/kg i.v.), the “spleen metastasis tumor nodules” value is listed as “tumor nodules were obviously smaller” and the “infiltrated macrophages in tumor sections (F4/80+, CD206+)” value is on record as “more macrophages other than M2 phenotype”. Besides, in the data set on MiaPaCa cells, the “fibrosis indicated by α-SMA” value was “obviously decrease”; the “level of CHI3L1 in intratumoral region and plasma” value is listed as “lower than IgG control group”; the “angiogenesis indicated by CD31 expression” value is “decreased in every treatment groups”; the tumor size entry is recorded as “smaller than IgG control group”.
